# Changes are numbered by the printed parent chain. Numbers in names are those of the source.
# T1: acid β-glucosidase (Homo sapiens, UniProt P04062)
# T1 sequence (P04062 40-536): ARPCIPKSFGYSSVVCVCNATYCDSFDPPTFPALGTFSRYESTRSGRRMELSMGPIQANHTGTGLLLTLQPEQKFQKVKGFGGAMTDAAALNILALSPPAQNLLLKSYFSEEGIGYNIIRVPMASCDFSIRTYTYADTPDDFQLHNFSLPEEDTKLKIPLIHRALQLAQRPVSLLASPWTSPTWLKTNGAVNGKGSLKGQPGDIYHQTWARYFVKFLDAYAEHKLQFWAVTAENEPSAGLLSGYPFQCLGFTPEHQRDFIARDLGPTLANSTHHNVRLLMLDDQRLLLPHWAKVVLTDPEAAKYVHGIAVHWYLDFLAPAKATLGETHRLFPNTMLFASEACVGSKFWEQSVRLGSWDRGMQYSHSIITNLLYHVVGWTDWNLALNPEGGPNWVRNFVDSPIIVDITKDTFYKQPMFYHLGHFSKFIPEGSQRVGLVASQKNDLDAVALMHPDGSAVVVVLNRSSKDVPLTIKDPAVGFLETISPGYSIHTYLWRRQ
# B1: Saposin C: saposin C (SapC, a small lysosomal protein, 80 AA); recombinant, produced in E. coli (protein)
# chain: SDVYCEVCEFLVKEVTKLIDNNKTEKEILDAFDKMCSKLPKSLSEECQEVVDTYGSSILSILLEEVSPELVCSMLHLCSG
# modifications: left off: small tags and cut ends
# notes: saposin C (SapC, a small lysosomal protein, 80 AA); recombinant, produced in E. coli
# B2: saposin C(S37W): saposin C with a Trp at residue 37 (i.e., in the middle) (protein, UniProt P07602 311-390, looked up, variant S37W)
# Saposin-C: B1 chain with S37W
# modifications: Saposin-C
# What was measured:
# tumors = assay: Tumor imaging experiments with SapC peptide nanovesicles; type: in vivo, mice; conditions: peptide in phospholipid (e.g., DOPS) nanovesicles
# Description: The nanovesicles are stable and relatively uncomplicated to make. […] For example, our fluorophore-nanovesicles offer a rapid and precise imaging method for seeing and measuring the change in tumor size of living mice. The tissue-homing, imaging nanovescicles of the present invention enable the researchers and physicians to determine the location and size of a broad range of tumors, including hidden, metastatic tumors.
# Several saposin C peptides were synthesized to test their activity in the nanovesicles. […] In one embodiment, the peptide comprises one of more sequences selected from the groups MCS, LCS, and VCS within the peptide sequence. In certain embodiments, amino acids, such as Lys or Cys, are required for the tumor-homing effect.
# acid β-glucosidase = target: T1, acid β-glucosidase; assay: Activation of acid β-glucosidase in liposomal reconstitution system; type: biochemical
# Protocol: Functional saposins were overexpressed in BL21(DE3) cells using a pET 21a series vector. Following IPTG induction at 37° C. or 30° C., large amounts of saposins containing His•Tag were found in the soluble fraction of the disrupted cells. These were conveniently purified to electrophoretic homogeneity on nickel-loaded columns. Alternatively, saposins without His•Tag were generated by introducing a stop codon after protein coding region, and then purified using immuno-affinity columns with T7-taq monoclonal antibody. […] Circular dichroism spectra, light scattering, and ES_MS analyses were used to evaluate the physical properties of the purified saposins, such as aggregation status and molecular weight. Trp-saposins without His•Tag were also generated for necessary control experiments. The functional integrity of recombinant saposin C is determined using delipidated and homogenous acid β-glucosidase in a liposomal reconstitution system and in neuritogenic assays. Recombinant saposin B function is determined using a sulfatide binding assay.
# [1] = Vesicle size change determination (N4 plus submicron particle sizer)
# Description: The amino acid residues 51-67 are necessary, but not sufficient, for its optimal enzymatic activation function. The disulfide structure and conformational alteration of saposin C upon lipid binding are also required for this activity. Three approaches are used for this study: (1) stopped-flow monitoring reduction of self-quenching resulting from fusion of fluorescence probe-containing vesicle with non-fluorescent vesicle induced by saposin C; (2) monitoring the lipid vesicle size changes upon addition of saposin C to vesicles, the size distribution as determined using N4 plus submicron particle sizer (Coulter Co.); (3) monitoring intrinsic fluorescence of Trp-saposin C change during liposomal fusion.
# Electron microscopy (EM) is used for vesicle fusion analysis, since the size of fused vesicles is bigger than those of non-fused. N4 plus submicron particle size is used to estimate particle sizes in the range of 3 nm to 3 um since most liposomes fit in this range. Sonication conditions with a cup sonicator give mono-dispersed BPS-liposomes with ˜200 nm in size. Upon addition of saposin C, these vesicles change to a larger size up to 2-3 um. The size increase is related to vesicles fusion as shown by the above dequenching experiments.
# Saposin C promotes the size changes at ˜50 nM concentration. To define the regions responsible for this fusion property, peptides containing only 50% of the NH2-terminal or 50% of the COOH-terminal halves in saposin C are tested. Both peptides show fusion activity.
# [2] = Stopped-flow Trp fluorescence of saposin C/liposome complex formation; type: binding; conditions: PS(18:1,1) or BPS vesicles
# Description: To investigate temporal and spatial interactions of saposins and liposomal membrane, fluorescence stopped-flow and quenching approaches are used with Trp as the intrinsic fluorescence probe of the saposins. These experiments allow identification of regional interactions between saposins and lipid bilayers, and also the kinetics of their binding.
# This binding induces change is lipid-concentration dependent and requires at least one unsaturated fatty acid chain. To evaluate the kinetics of this interaction, stopped-flow experiments are conducted the change in fluorescence during saposin C/liposome complex formation is monitored. When saposin C(0W) is mixed with PS(18:1,1) or BPS vesicles, fluorescence of Trp is increased, but the time course of this change is undetectable due to limitation of the machine's capability. Apparently, the interaction of saposin C and unsaturated PS containing membranes occurs within at least 10 ms.
# [3] = R18 dequenching stopped-flow membrane fusion assay; conditions: R18-labeled and unlabeled PS(18:1,1) vesicles
# Description: Fluorescence probes have been widely used to determine membrane fusion, such as fluorescence dequenching, and fluorescence resonance energy transfer (FET), and can be used for quantitative and kinetics analyses. The dequenching approach is used to investigate saposin C's fusogenic activity. Octadecyl rhodamine B (R18) is selected as fluorescence probe and is entrapped in internal aqueous compartment of liposomal vesicles by co-sonication with BPS or PS(18:1,1).
# Fluorescence increase (dequenching) of R18 occurs upon R18 concentration decreases. After non-labeled and labeled vesicles fuse, the R18 concentration is diluted, resulting in an increase in intensity of fluorescence. R18-labeled vesicles (lipid:R18=96:4, mol:mol) are mixed with the same lipid vesicles without fluorescence probe. Stopped-flow assays are conducted to quickly mix these vesicles with saposin C or Ca^2+ ion. Time-trace curves are generated for kinetic analysis.
# [4] = Fusion mechanism study with preformed saposin C-PS(18:1,1) liposome complexes
# Protocol: Protein conformational changes are thought to play a role in protein-mediated membrane fusion. This fusion mechanism is evaluated using saposin C-dependent membrane fusion. First, saposin C-PS(18:1,1) liposome complexes are formed. In this saposin C-anchored membrane, protein conformation is altered. This complex is stable from pH 3 to 10, and in low concentrations of SDS solution.
# Since the Trp in saposin C(0W) is embedded inside of lipid bilayer, the change of its signal is indicative of that the surrounding environment of Trp has been changed. After about 20 to 30 ms, Trp fluorescence signal decreases to the starting level. […] Shortly after this, the signal drops back to starting level signaling on end of the fusion process. […] Therefore, a conformational change of saposin C upon lipid binding is […] for its fusogenic activity.
# [5] = test system: cultured mouse cortical and hippocampal neurons; assay: Transport into cultured neurons; type: cell-based; conditions: facilitated by complexes with DOPS liposomes
# Protocol: Saposin C can be transported into endosomal and lysosomal compartments using saposin-C liposomes containing long-chain anionic phospholipids. This method can be used for the treatment of neurological diseases including, for example, those in which MVB accumulation contributes to pathology and progression of disease.
# Primary Cortical Neuron Cultures—Cortical neurons are cultured in serum-free Neuroblasal medium with B27 supplements as described by Whitmarsh et al.^44 Take out E16 mouse embryos, cut the head and place them into ice-cold Ca/Mg-free Hank Balance Salt Solution (HBSS) with papain (1 mg/ml). The brain is dissected out and place scalpel along the dorsal midline between the two cerebral hemispheres but slightly deviate towards to the side as it cut. This will give a clean cerebral cortex. Peel out the meninges gently without touching the medial side of the cortex where the hippocampus is located. Cut out the cortex with curved fine surgical scissors and collect them in ice-cold HBSS. The cortical tissue is replaced in papain HBSS solution for 15-20 minutes at room temperature to soften up the tissues. Transfer them to papain-inhibitor solution for another 5 minutes at room temperature and finally back to 2 ml ice-cold HBSS. Fisherbran 12-546 (18CIR-2) coverglasses in 12-well plate are coated with PEI containing laminin overnight. […]
molecule,measurement,setting,value
EKEILDAFDKMCSKLPK [Saposin E24-K41],tumor-homing function,tumors,optimal tumor-homing function
"EVCEFLVKEVTKLIDNNKTEKEILDAFDKMCSKLP [Saposin E6-P40, SapC peptide E6-P40]",tumor-homing function,tumors,tumor-homing function
FDKMCSKLPK [F32 to K41],tumor-homing function,tumors,tumor-homing function
"KSLSEECQEVVDTYGSSILSILLEEVSPELVCSMLHLCSG [Saposin K41-G80, SapC peptide K41-G80]",tumor-homing function,tumors,tumor-homing function
"SPELVCSMLHLCSG [Saposin S67-G80, SapC peptide S67-G80]",tumor-homing function,tumors,tumor-homing function
B1,activation of acid β-glucosidase,acid β-glucosidase; purified recombinant protein,excellent activation
same,concentration that promotes the size changes,[1],~50 nM
same,vesicle size upon addition of saposin C,[1]; mono-dispersed BPS-liposomes of ˜200 nm before addition,2-3 um
same,vesicle size change,"[1]; pH 4.7, 10 min period",enlarges vesicle size
same,vesicle size change,"[1]; pH 7.4, 10 min period",not
same,time within which interaction with unsaturated PS containing membranes occurs,[2],≤ 10 ms
same,kinetics of induced membrane fusion,[3],the same kinetics as those with Ca^2+
same,fusogenic activity when bound to lipid membrane,[4],retains the fusogenic activity
same,transport into neurons,[5],transported into the cultured mouse cortical and hippocampal neurons
B2,effect of Trp substitution on activation properties,acid β-glucosidase,no effect

# — patent publication US20120020878A1, “FUSOGENIC PROPERTIES OF SAPOSIN C AND RELATED PROTEINS AND PEPTIDES FOR APPLICATION TO TRANSMEMBRANE DRUG DELIVERY SYSTEMS” (CHILDREN'S HOSPITAL MEDICAL CENTER, priority 2008, published 2012)
